Measured values from the RNAGym collection of RNA variant scans (doi:10.1073/pnas.2313332121).

B1: TPR t1 (parent)
chain: GACCAAUCUGCCCUCAGAGCUCGAGAACAUCUUCGGAUGCAGAGGAGGCAGGCUUCGGUGGCGCGAUAGCGCCAACGUCCUCAACCUCCAAUGCAUCCCACCACAUGAUGAUGCCUGAAGAGCCUUGGUUUUUUG

Variants of: B1
Experiment: polymerase ribozyme fitness, log enrichment relative to wild type (log ratio); higher = more active; in vitro selection for triplet polymerase activity
Outline: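 Both subunits of a heterodimeric triplet polymerase ribozyme were given their own mutant library, built by PCR and transcribed. Each library was annealed with a biotinylated primer, the partner subunit and triplets, incubated frozen at −7 °C, and its extended constructs gel-excised, captured on streptavidin beads and amplified by RT-PCR, all in one round done in triplicate. Fitness is the logarithm of genotype enrichment relative to wild-type enrichment, with replicates averaged by inverse-variance weighting. That logarithm is base 2, and Illumina-sequenced genotypes needed ≥10 input reads and ≥1 read per output.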

| Variant | polymerase ribozyme fitness (log ratio) |
| --- | --- |
| C104A G135U | -2.01 |
| C104A U112G | -1.47 |
| C104A U125G | -2.44 |
| C104G U112A | -4.8 |
| C104U A111U A119G | -1.53 |
| C104U C123A | 0.201 |
| C104U C124U | 0.788 |
| C104U G120A | 0.815 |
| C104U U112C | 0.772 |
| C104U U133C | 0.657 |
| A105C | -2.22 |
| A105C G113U | -4.85 |
| A105C U129A | -4.21 |
| A105G | -1.71 |
| A105G C124U | -0.654 |
| A105G G117A | -4.69 |
| A105U | -1.69 |
| A105U G113U | -5.9 |
| A105U G120U | -2.54 |
| A105U U106G G120C | 0.766 |
| A105U U109C | -5.35 |
| U106A C114G | -3.33 |
| U106A C123U | 0.563 |
| U106A G117A | -1.55 |

| Variant | polymerase ribozyme fitness (log ratio) |
| --- | --- |
| U106A G120A | 0.348 |
| U106A G120C U130G | 0.744 |
| U106A U109G A111U | -4.71 |
| U106A U125A | -0.469 |
| U106A U132A | -0.65 |
| U106C A118U G120A | 0.234 |
| U106C C123A | 0.522 |
| U106C C123G | 0.936 |
| U106C C123U | 0.901 |
| U106C G113C | -2.72 |
| U106C G117A | -3.23 |
| U106C G117C | -3.72 |
| U106C U112A | 0.973 |
| U106C U116G | -2.03 |
| U106C U131C U132A | -1.1 |
| U106G C114U | -1.86 |
| U106G C115U | -4.44 |
| U106G G120C | -0.678 |
| U106G U112G | -1.25 |
| U106G U125G | -3.81 |
| G107A A111U | -5.27 |
| G107A A119G | -4.92 |
| G107A C114A | -4.24 |
| G107A C124A | -2.63 |

| Variant | polymerase ribozyme fitness (log ratio) |
| --- | --- |
| G107A G120C | -3.25 |
| G107A U109A A119G | -4.55 |
| G107C C115A | -6.69 |
| G107C G120C U130A | -4.61 |
| G107U A119U A121C | -3.29 |
| A108C C124G | -4.87 |
| U109A A119G | -5.27 |
| U109A C114U A118C | -5.26 |
| U109A G110A | -4.3 |
| U109A U112C U130A G135U | -5.01 |
| U109A U129A | -6.83 |
| U109C A111U | -4.13 |
| U109C A121U | -3.68 |
| U109C C123U | -4.63 |
| U109G A119G G135C | -3.19 |
| U109G G110A | -3.89 |
| U109G U129A | -5.24 |
| G110A A111U | -1.9 |
| G110A G120A | -1.23 |
| G110A U130A | -0.862 |
| G110A U130C | -0.539 |
| G110A U131G | -1.96 |
| G110C A121C U130A | -3.51 |
| G110C C123U | -4.69 |

| Variant | polymerase ribozyme fitness (log ratio) |
| --- | --- |
| G110C U131C | -3.75 |
| G110U U129A | -2.53 |
| G110U U130A | -1.27 |
| G110U U130C | -1.04 |
| A111C C123G | 0.549 |
| A111C C124U G128C U129A | -3.3 |
| A111C G122A | -0.308 |
| A111C G127C | -0.199 |
| A111C U112G G113U U116A C124A | -3.18 |
| A111C U131C | 0.44 |
| A111G C124A | 1.23 |
| A111G C124A U126A | 0.226 |
| A111G G113U U129G U131A | -6.64 |
| A111G U126C | 0.0972 |
| A111U C124U | -3.09 |
| U112A | 1.34 |
| U112A A118U | 0.895 |
| U112A A121U U125A | 1.36 |
| U112A C115A U125G | 0.414 |
| U112A C123A | 1.45 |
| U112A G122A | -0.631 |
| U112A G122C | 0.265 |
| U112A G127A | 0.262 |
| U112A G128C | -2.66 |

| Variant | polymerase ribozyme fitness (log ratio) |
| --- | --- |
| U112A U129A | 0.929 |
| U112A U131A | 1.02 |
| U112C | 1.39 |
| U112C A119U | 1.24 |
| U112C C124A | 0.693 |
| U112C G122A | 0.065 |
| U112G | 0.661 |
| U112G C124U | 0.835 |
| U112G G120U G122C | -1.48 |
| U112G G122A G128A | -2.62 |
| U112G U116C | -0.775 |
| G113A | -1.01 |
| G113A A118C | -2.55 |
| G113A A118U | -2.67 |
| G113A C115A | -3.51 |
| G113A C123A | -1.45 |
| G113A C123U | -1.32 |
| G113A G120U | -2.35 |
| G113A G122C G135C | -0.874 |
| G113A G127U | -3.27 |
| G113C | -2.02 |
